Laboratory results: patent US20150024465A1, “Carbohydrate-Binding Modules of a New Family” (Novozymes A/S, priority 2003, published 2015)

How the values were obtained:
[1] = Binding of CBMX to Avicel (A280 of supernatant after incubation and centrifugation); details: for A280: Absorbance at 280 nm of 200 μl supernatant, absorbance of buffer and Avicel subtracted: 20 mM Tris pH 7.5, 4 hours room temperature
Experimental: The carbohydrate-binding domain with affinity for Avicel® and purified as described in Example 2 (CBMX) was studied further. 50 μl purified CBMX was mixed with 500 μl 20 mM Tris, pH 7.5 containing varying amount of Avicel® (0-100 mg/ml) in an Eppendorf tube. After 4 hours incubation at room temperature with agitation, the samples were centrifuged. 200 μl supernatant was transferred to the well of a microtiter plate (Costar, UV plate) and absorbance read at 280 nm on a microtiter plate reader (SpectraMax® Plus, Molecular Devices).

[2] = Competition binding assay, references without soluble carbohydrate
Experimental: (§1) Affinity of CBMX for a number of soluble carbohydrates was tested in a competition assay by mixing 100 μl CBMX with both Avicel® (400 μl 50 mg/ml in 20 mM Tris, pH 7.5) and the soluble carbohydrate (dissolved in 500 μl 20 mM Tris, pH 7.5). As references, samples without CBMX or soluble carbohydrate added were used. If CBMX has affinity for the soluble carbohydrate it should be able to keep CBMX in solution which can be measured as increase in absorbance at 280 nm compared to sample without soluble carbohydrate added. After 4 hours incubation at room temperature with agitation, samples were centrifuged and absorbance at 280 nm was read using 200 μl supernatant in the well of a microtiter UV plate. Tested soluble carbohydrates were barley β-glucan (Megazyme, low viscosity), lichenan (Megazyme, Icelandic moss), CMC (carboxymethyl cellulose 7LF, Hercules, USA), Xyloglucan (Megazyme, amyloid, from tamarind seed), lupin galactan (Megazyme) and Locust bean gum (Sigma, G-0753).

[3] = Binding of CBMX to PASC (A280 of supernatant); details: for A280: Absorbance at 280 nm of 200 μl supernatant, absorbance of buffer subtracted: 20 mM Tris pH 7.5, 4 hours room temperature
Experimental: A similar binding study was performed with PASC (Phosphoric Acid Swollen Cellulose: To 5 g Avicel® moisted with water 150 ml ice-cold 85 ortho-phosphoric acid is added. After 1 hour stirring on ice bath, 500 ml cold acetone is added. The suspension is filtered and washed, first with acetone and then with water). 50 μl purified CBMX was mixed with 500 μl 20 mM Tris, pH 7.5 containing varying amount of PASO (0-10 mg/ml) in an Eppendorf tube. Samples were incubated 4 hours at room temperature with agitation. After centrifugation, 200 μl supernatant was transferred to the well of a microtiter plate and absorbance read at 280 nm.

[4] = Binding of CBMX to Avicel (A280 of supernatant after incubation and centrifugation); details: shorter incubation time (15 min to 1 hour) compared with 4 hours
[5] = Competition binding assay with CBMX, Avicel and soluble carbohydrate; details: for Difference in A280 between samples with and without CBMX added: Avicel 20 mg/ml, 4 hours room temperature; for Share of CBMX kept in solution by the soluble carbohydrate (in words): competition with Avicel
Experimental: as §1

B1: CBMX: Carbohydrate-binding module of Pseudoplectania nigrella GH61 (positions 34-174 of SEQ ID NO:2), expressed in Aspergillus oryzae, purified on Avicel (protein, listed as Pseudoplectania nigrella)
chain: SSGTSNDKAVASSSIAAVDPVTSSVVASVQVPNFTATDVPTFTATDIPTFTATDVPIFTKKPQQPSTLLTRTRTHASVSFVAKPSAFIPKPSASTIPSKPKTPEEVNKCLDAVNACITQAQSSIGGVVNFEPCESQRALCY
- A280: Absorbance at 280 nm of 200 μl supernatant, absorbance of buffer and Avicel subtracted ([1]; Avicel 0.0 mg/ml (CBMX alone)): 0.0768
- A280: Absorbance at 280 nm of 200 μl supernatant, absorbance of buffer and Avicel subtracted ([1]; Avicel 0.391 mg/ml): 0.0777
- A280: Absorbance at 280 nm of 200 μl supernatant, absorbance of buffer and Avicel subtracted ([1]; Avicel 0.781 mg/ml): 0.0808
- A280: Absorbance at 280 nm of 200 μl supernatant, absorbance of buffer and Avicel subtracted ([1]; Avicel 1.563 mg/ml): 0.0799
- A280: Absorbance at 280 nm of 200 μl supernatant, absorbance of buffer and Avicel subtracted ([1]; Avicel 3.125 mg/ml): 0.0729
- A280: Absorbance at 280 nm of 200 μl supernatant, absorbance of buffer and Avicel subtracted ([1]; Avicel 6.25 mg/ml): 0.0637
- A280: Absorbance at 280 nm of 200 μl supernatant, absorbance of buffer and Avicel subtracted ([1]; Avicel 12.5 mg/ml): 0.0540
- A280: Absorbance at 280 nm of 200 μl supernatant, absorbance of buffer and Avicel subtracted ([1]; Avicel 25 mg/ml): 0.0326
- A280: Absorbance at 280 nm of 200 μl supernatant, absorbance of buffer and Avicel subtracted ([1]; Avicel 50 mg/ml): 0.0185
- A280: Absorbance at 280 nm of 200 μl supernatant, absorbance of buffer and Avicel subtracted ([1]; Avicel 100 mg/ml): 0.0095
- Share of the protein that binds to Avicel (in words) ([1]; highest concentrations of Avicel, 4 hours incubation): large majority of the protein binds
- Affinity for Avicel (in words) ([1]; summary statement): shown to have affinity
- Difference in A280 between samples with and without CBMX added ([2]; None - Only Avicel (20 mg/ml) and CBMX, no soluble carbohydrate): 0.018
- Difference in A280 between samples with and without CBMX added ([2]; None - Only CBMX, no Avicel): 0.108
- A280: Absorbance at 280 nm of 200 μl supernatant, absorbance of buffer subtracted ([3]; PASC 0.0 mg/ml (CBMX alone)): 0.0753
- A280: Absorbance at 280 nm of 200 μl supernatant, absorbance of buffer subtracted ([3]; PASC 0.625 mg/ml): 0.0682
- A280: Absorbance at 280 nm of 200 μl supernatant, absorbance of buffer subtracted ([3]; PASC 1.25 mg/ml): 0.0710
- A280: Absorbance at 280 nm of 200 μl supernatant, absorbance of buffer subtracted ([3]; PASC 2.5 mg/ml): 0.0618
- A280: Absorbance at 280 nm of 200 μl supernatant, absorbance of buffer subtracted ([3]; PASC 5 mg/ml): 0.0512
- A280: Absorbance at 280 nm of 200 μl supernatant, absorbance of buffer subtracted ([3]; PASC 10 mg/ml): 0.0471
- Affinity for PASC (in words) ([3]; increasing amount of PASC reduces absorbance of CBMX in the supernatant): has affinity
- Completeness of binding to Avicel (in words) [4]: less complete binding
- Difference in A280 between samples with and without CBMX added ([5]; CMC 25 mg/ml): 0.129
- Share of CBMX kept in solution by the soluble carbohydrate (in words) ([5]; CMC): almost all
- Difference in A280 between samples with and without CBMX added ([5]; Galactan 20 mg/ml): 0.043
- Difference in A280 between samples with and without CBMX added ([5]; Lichenan 20 mg/ml): 0.025
- Difference in A280 between samples with and without CBMX added ([5]; Locust bean gum 25 mg/ml): 0.087
- Difference in A280 between samples with and without CBMX added ([5]; Xyloglucan 11 mg/ml): 0.052
- Difference in A280 between samples with and without CBMX added ([5]; beta-Glucan 20 mg/ml): 0.100
- Share of CBMX kept in solution by the soluble carbohydrate (in words) ([5]; beta-glucan): almost all
- Affinity of CBMX for the soluble carbohydrate (in words) ([5]; galactan): to some extent
- Share of CBMX kept in solution by the soluble carbohydrate (in words) ([5]; galactan): about half
- Affinity of CBMX for the soluble carbohydrate (in words) ([5]; lichenan): no affinity
- Share of CBMX kept in solution by the soluble carbohydrate (in words) ([5]; lichenan): does not result in any increase
- Share of CBMX kept in solution by the soluble carbohydrate (in words) ([5]; locust bean gum): the majority
- Affinity of CBMX for the soluble carbohydrate (in words) ([5]; xyloglucan): to some extent
- Share of CBMX kept in solution by the soluble carbohydrate (in words) ([5]; xyloglucan): about half
